In doi:10.1101/2020.05.09.085852 (bioRxiv, 2020):

Biological target: the molecule itself
Assay: crystal structure

B1: YukC413.strep (domain or fragment, B. subtilis 168, UniProt P71070 1-413, looked up)
chain: MSGEQKSYLENQLEAVAEKTDAGYTFTFQREKIKLLDGLEANVIKDINPFFHKEIDVTDDEVIITIQPPSSYKAFRFMKAKDKKSKWQFAYQLVQAVQQHNLSRLNLIVAPENIVFDKGLTPYFLHYGVKESIPPYERDEERVWQELKAAAALAVDGAFAFEDYLKFNETLTFSAEAKAILDAESYDDLLELIQTHIDELEAKAKTYIHIPRKKWNIQRYIGLGLIVLLVPALIYSMYALFFAQPKHQAIVDSNRAFLNKQYSEVISTLSKYDAESLPESVQYQLATSYVEVENLGSAKTKNIENNLVTLQSDPQHFLYWIDYGRGEYKEAISIGRKLEYNDYIYFALAKYKQQLLSEDTNDEDIQKELDSVNSELEKAQKERQENKQSNSETSLVDTSEEQTQTDEEKQAEE
stoichiometry N: 2
